Measurements published in the supplement of paper PMC6757056.
± gives the standard deviation of the averaged measurements.

B1: library; a variant is named by its letters at N, in order (parent)
chain: GCUGUCACCGAGAAACUGUGAAGUAUAUCUUAAACCUGGGCACUUAAAAGAUAUAUGGAGUUAGUAGUGCAACCUGCUCGGUCUGAUGAGUCCNNNNNNGGACGAAACAGC

Assays:
cyclic di-GMP [1] = variants of: B1; assay: normalized RNA/DNA level without ligand (relative to sTRSVctl = 100) (log10 (% of sTRSVctl)); HEK293T; ligand: cyclic di-GMP (c-di-GMP-II aptamer); higher = less ribozyme self-cleavage, higher mRNA level; conditions: reporter: mCherry (pCS4076), ligand present: no
Procedure, shortened: (§1)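 RNA level was computed as RNA reads over DNA reads divided by a spiked-in non-cleaving sequence or by the top sequences, then scaled and log-transformed. Scaling was ×100 with log10, the top group was 25 sequences, and the threshold was ≥100 DNA reads. The reads came from HEK293T cells transfected at 4 µg per 6-well well with ribozyme switch library plasmids (mCherry, or eGFP in some ligand experiments). Total RNA was extracted with EDTA 72 h after transfection, with any ligand added 1 h before it.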

cyclic di-GMP [2] = variants of: B1; assay: normalized RNA/DNA level with ligand (relative to sTRSVctl = 100) (log10 (% of sTRSVctl)); HEK293T; ligand: cyclic di-GMP (c-di-GMP-II aptamer); ligand concentration (+) RNA-Seq: 1 mM; higher = less ribozyme self-cleavage, higher mRNA level; conditions: reporter: mCherry (pCS4076), ligand present: yes
Procedure, shortened: as §1

| Variant | normalized RNA/DNA level without ligand (log10) (cyclic di-GMP [1]) | normalized RNA/DNA level with ligand (log10) (cyclic di-GMP [2]) |
| --- | --- | --- |
| GCUGUCACCGAGAAACUGUGAAGUAUAUCUUAAACCUGGGCACUUAAAAGAUAUAUGGAGUUAGUAGUGCAACCUGCUCGGUCUGAUGAGUCCCAAAGGGGACGAAACAGC | 1.59 ± 0.033 | 1.75 ± 0.081 |
| GCUGUCACCGAGAAACUGUGAAGUAUAUCUUAAACCUGGGCACUUAAAAGAUAUAUGGAGUUAGUAGUGCAACCUGCUCGGUCUGAUGAGUCCCAAAGCGGACGAAACAGC | 1.717 ± 0.011 | 1.84 ± 0.091 |
| GCUGUCACCGAGAAACUGUGAAGUAUAUCUUAAACCUGGGCACUUAAAAGAUAUAUGGAGUUAGUAGUGCAACCUGCUCGGUCUGAUGAGUCCUAACAGGGACGAAACAGC | 1.68 ± 0.02 | 1.86 ± 0.098 |
| GCUGUCACCGAGAAACUGUGAAGUAUAUCUUAAACCUGGGCACUUAAAAGAUAUAUGGAGUUAGUAGUGCAACCUGCUCGGUCUGAUGAGUCCUAACACGGACGAAACAGC | 1.68 ± 0.035 | 1.83 ± 0.13 |
| GCUGUCACCGAGAAACUGUGAAGUAUAUCUUAAACCUGGGCACUUAAAAGAUAUAUGGAGUUAGUAGUGCAACCUGCUCGGUCUGAUGAGUCCUAACAAGGACGAAACAGC | 1.7 ± 0.034 | 1.83 ± 0.16 |
| GCUGUCACCGAGAAACUGUGAAGUAUAUCUUAAACCUGGGCACUUAAAAGAUAUAUGGAGUUAGUAGUGCAACCUGCUCGGUCUGAUGAGUCCUAAACGGGACGAAACAGC | 1.747 ± 0.0073 | 1.85 ± 0.068 |
| GCUGUCACCGAGAAACUGUGAAGUAUAUCUUAAACCUGGGCACUUAAAAGAUAUAUGGAGUUAGUAGUGCAACCUGCUCGGUCUGAUGAGUCCUAAACUGGACGAAACAGC | 1.71 ± 0.061 | 1.85 ± 0.15 |
| GCUGUCACCGAGAAACUGUGAAGUAUAUCUUAAACCUGGGCACUUAAAAGAUAUAUGGAGUUAGUAGUGCAACCUGCUCGGUCUGAUGAGUCCCAAACUGGACGAAACAGC | 1.54 ± 0.045 | 1.68 ± 0.072 |
| GCUGUCACCGAGAAACUGUGAAGUAUAUCUUAAACCUGGGCACUUAAAAGAUAUAUGGAGUUAGUAGUGCAACCUGCUCGGUCUGAUGAGUCCGAACAUGGACGAAACAGC | 1.64 ± 0.033 | 1.78 ± 0.097 |
| GCUGUCACCGAGAAACUGUGAAGUAUAUCUUAAACCUGGGCACUUAAAAGAUAUAUGGAGUUAGUAGUGCAACCUGCUCGGUCUGAUGAGUCCGAACACGGACGAAACAGC | 1.641 ± 0.014 | 1.78 ± 0.1 |
| GCUGUCACCGAGAAACUGUGAAGUAUAUCUUAAACCUGGGCACUUAAAAGAUAUAUGGAGUUAGUAGUGCAACCUGCUCGGUCUGAUGAGUCCGAACAAGGACGAAACAGC | 1.55 ± 0.03 | 1.7 ± 0.14 |
| GCUGUCACCGAGAAACUGUGAAGUAUAUCUUAAACCUGGGCACUUAAAAGAUAUAUGGAGUUAGUAGUGCAACCUGCUCGGUCUGAUGAGUCCGAAAUCGGACGAAACAGC | 1.659 ± 0.012 | 1.81 ± 0.11 |
| GCUGUCACCGAGAAACUGUGAAGUAUAUCUUAAACCUGGGCACUUAAAAGAUAUAUGGAGUUAGUAGUGCAACCUGCUCGGUCUGAUGAGUCCCAAAUCGGACGAAACAGC | 1.61 ± 0.034 | 1.76 ± 0.091 |
| GCUGUCACCGAGAAACUGUGAAGUAUAUCUUAAACCUGGGCACUUAAAAGAUAUAUGGAGUUAGUAGUGCAACCUGCUCGGUCUGAUGAGUCCCAAAUGGGACGAAACAGC | 1.64 ± 0.017 | 1.82 ± 0.068 |
| GCUGUCACCGAGAAACUGUGAAGUAUAUCUUAAACCUGGGCACUUAAAAGAUAUAUGGAGUUAGUAGUGCAACCUGCUCGGUCUGAUGAGUCCCAACACGGACGAAACAGC | 1.58 ± 0.028 | 1.77 ± 0.12 |
| GCUGUCACCGAGAAACUGUGAAGUAUAUCUUAAACCUGGGCACUUAAAAGAUAUAUGGAGUUAGUAGUGCAACCUGCUCGGUCUGAUGAGUCCCAACAGGGACGAAACAGC | 1.6987 ± 0.0016 | 1.85 ± 0.13 |
| GCUGUCACCGAGAAACUGUGAAGUAUAUCUUAAACCUGGGCACUUAAAAGAUAUAUGGAGUUAGUAGUGCAACCUGCUCGGUCUGAUGAGUCCAAAAUAGGACGAAACAGC | 1.48 ± 0.041 | 1.69 ± 0.1 |
| GCUGUCACCGAGAAACUGUGAAGUAUAUCUUAAACCUGGGCACUUAAAAGAUAUAUGGAGUUAGUAGUGCAACCUGCUCGGUCUGAUGAGUCCGAAACUGGACGAAACAGC | 1.63 ± 0.035 | 1.79 ± 0.1 |
| GCUGUCACCGAGAAACUGUGAAGUAUAUCUUAAACCUGGGCACUUAAAAGAUAUAUGGAGUUAGUAGUGCAACCUGCUCGGUCUGAUGAGUCCGAAAGGGGACGAAACAGC | 1.56 ± 0.041 | 1.72 ± 0.12 |
| GCUGUCACCGAGAAACUGUGAAGUAUAUCUUAAACCUGGGCACUUAAAAGAUAUAUGGAGUUAGUAGUGCAACCUGCUCGGUCUGAUGAGUCCGAAAGCGGACGAAACAGC | 1.59 ± 0.029 | 1.72 ± 0.068 |
| GCUGUCACCGAGAAACUGUGAAGUAUAUCUUAAACCUGGGCACUUAAAAGAUAUAUGGAGUUAGUAGUGCAACCUGCUCGGUCUGAUGAGUCCAAAACUGGACGAAACAGC | 1.669 ± 0.0017 | 1.79 ± 0.086 |
| GCUGUCACCGAGAAACUGUGAAGUAUAUCUUAAACCUGGGCACUUAAAAGAUAUAUGGAGUUAGUAGUGCAACCUGCUCGGUCUGAUGAGUCCUAAAUCGGACGAAACAGC | 1.63 ± 0.033 | 1.79 ± 0.17 |
| GCUGUCACCGAGAAACUGUGAAGUAUAUCUUAAACCUGGGCACUUAAAAGAUAUAUGGAGUUAGUAGUGCAACCUGCUCGGUCUGAUGAGUCCUAAAGUGGACGAAACAGC | 1.54 ± 0.076 | 1.77 ± 0.048 |
| GCUGUCACCGAGAAACUGUGAAGUAUAUCUUAAACCUGGGCACUUAAAAGAUAUAUGGAGUUAGUAGUGCAACCUGCUCGGUCUGAUGAGUCCUAAAGGGGACGAAACAGC | 1.635 ± 0.0018 | 1.78 ± 0.088 |
| GCUGUCACCGAGAAACUGUGAAGUAUAUCUUAAACCUGGGCACUUAAAAGAUAUAUGGAGUUAGUAGUGCAACCUGCUCGGUCUGAUGAGUCCUAAAGCGGACGAAACAGC | 1.676 ± 0.0024 | 1.82 ± 0.1 |
| GCUGUCACCGAGAAACUGUGAAGUAUAUCUUAAACCUGGGCACUUAAAAGAUAUAUGGAGUUAGUAGUGCAACCUGCUCGGUCUGAUGAGUCCAAAAGUGGACGAAACAGC | 1.52 ± 0.071 | 1.71 ± 0.057 |
